The test concerns the target KLHDC2 substrate binding domain (KLHDC2^SBD, 15-361) (UniProt Q9Y2U9).

Sequence of KLHDC2 substrate binding domain (KLHDC2^SBD, 15-361) (Q9Y2U9 15-361): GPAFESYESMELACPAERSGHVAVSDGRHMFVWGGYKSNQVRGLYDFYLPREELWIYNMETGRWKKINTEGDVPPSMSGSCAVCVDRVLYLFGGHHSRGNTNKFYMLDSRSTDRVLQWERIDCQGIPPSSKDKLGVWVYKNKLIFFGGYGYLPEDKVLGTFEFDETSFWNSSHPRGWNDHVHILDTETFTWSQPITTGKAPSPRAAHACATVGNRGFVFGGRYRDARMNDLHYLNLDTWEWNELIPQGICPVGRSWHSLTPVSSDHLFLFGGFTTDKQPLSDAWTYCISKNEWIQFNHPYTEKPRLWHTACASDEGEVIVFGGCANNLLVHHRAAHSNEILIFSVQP

Substance “BRD3^BD2 (second bromodomain of BRD3, residues 306-416) (from UniProt Q15059 306-416) (domain or fragment)” came in with an improvement of the IC50 of inhibition of KLHDC2 di-Gly substrate ubiquitylation, SJ46421-BRD3^BD2 against SJ46421 alone (orders-of-magnitude) of 2.

Values taken from PMC11470957, “Principles of paralog-specific targeted protein degradation engaging the C-degron E3 KLHDC2” (Nature Communications, 2024).
